Here are results for four molecules from paper PMC6368335, “Inhibition of the Staphylococcus aureus c-di-AMP cyclase DacA by direct interaction with the phosphoglucosamine mutase GlmM” (PLoS Pathogens, 2019).

Data set [1] concerns the target S. aureus phosphoglucosamine mutase GlmM, C-terminally His-tagged (GlmM-His) (S. aureus) (UniProt P0C0V7).
For data set [2], the target named is S. aureus DacA catalytic domain (DacACD), tag-less (S. aureus). Briefly: SEC-SAXS; tag-less DacACD, GlmM and the DacACD/GlmM complex on a Superdex 200 5/150 column coupled to the SAXS beam, 30 mM Tris pH 7.5, 150 mM NaCl; envelopes reconstructed, crystal structures fitted. (Size exclusion chromatography separates by hydrodynamic size, large species first.)
The target in data set [3] is S. aureus phosphoglucosamine mutase GlmM, tag-less (S. aureus) (UniProt P0C0V7). The data set is described as above.
Data set [4] shares this target. Briefly: SEC-MALS + native MS; purified tag-less DacACD/GlmM complex; SEC-MALS: 100 ul at 18 mg/ml, Superdex 200 Increase 10/300, 30 mM Tris pH 7.5, 150 mM NaCl; native MS: 13.5 uM in 200 mM ammonium acetate.
In data set [5] the target is S. aureus DacA catalytic domain (DacACD), tag-less (S. aureus). Briefly: SEC; tag-less proteins after Ni-NTA and thrombin cleavage on a Superdex 200 10/300 column, UV at 280 nm.
Data set [6] has the same target. Description: native MS; purified tag-less DacACD/GlmM complex, 13.5 uM in 200 mM ammonium acetate pH 7.5, nanoelectrospray, Waters Synapt QToF; species deconvoluted with Amphitrite.
Data set [7] has as its target S. aureus phosphoglucosamine mutase GlmM, tag-less (S. aureus) (UniProt P0C0V7). The data set is described as above. The conditions noted are these: scale: DacACD per GlmM.
In data set [8] the target is S. aureus DacACD-C variant (N166C, T172C), tag-less (S. aureus). Description: SEC; tag-less proteins after Ni-NTA and thrombin cleavage on a Superdex 200 10/300 column, UV at 280 nm.
Data set [9] concerns the target S. aureus DacACD-K variant (N166K, T172K), tag-less (S. aureus). The description is as above.
Data set [10] concerns the molecule itself. Description: native MS; purified tag-less DacACD/GlmM complex, 13.5 uM in 200 mM ammonium acetate pH 7.5, nanoelectrospray, Waters Synapt QToF; species deconvoluted with Amphitrite.

The term stoichiometry N denotes the number of molecules, sites or subunits per partner or assembly.

With “S. aureus DacA catalytic domain (DacACD), tag-less (domain or fragment)”, the GlmM phosphoglucosamine mutase activity (coupled radioactive assay with GlmU), DacA in 5- to 400-fold excess over GlmM; no inhibition at 5- to 50-fold excess in data set [1] was 15%. Further, the stoichiometry N in data set [2] worked out at 2; in [5], 2; in [6] it was 2; in [7] it was 1. Moreover, the stoichiometry N (DacACD dimer per GlmM dimer) in [3] was 1. Further, the stoichiometry N (DacACD dimer per GlmM dimer (2:2)) in data set [4] amounted to 1.
“S. aureus DacACD-C variant (N166C, T172C), tag-less (domain or fragment)”: the stoichiometry N in data set [8] came to 2.
“S. aureus DacACD-K variant (N166K, T172K), tag-less (domain or fragment)” had a stoichiometry N in data set [9] of 2.

B1: S. aureus phosphoglucosamine mutase GlmM, tag-less (enzyme)
chain: MGKYFGTDGVRGVANQELTPELAFKLGRYGGYVLAHNKGEKHPRVLVGRDTRVSGEMLESALIAGLISIGAEVMRLGIISTPGVAYLTRDMGAELGVMISASHNPVADNGIKFFGSDGFKLSDEQENEIEALLDQENPELPRPVGNDIVHYSDYFEGAQKYLSYLKSTVDVNFEGLKIALDGANGSTSSLAPFLFGDLEADTETIGCSPDGYNINEKCGSTHPEKLAEKVVETESDFGLAFDGDGDRIIAVDENGQIVDGDQIMFIIGQEMHKNQELNNDMIVSTVMSNLGFYKALEQEGIKSNKTKVGDRYVVEEMRRGNYNLGGEQSGHIVMMDYNTTGDGLLTGIQLASVIKMTGKSLSELAGQMKKYPQSLINVRVTDKYRVEENVDVKEVMTKVEVEMNGEGRILVRPSGTEPLVRVMVEAATDEDAERFAQQIADVVQDKMGLDK
notes: phosphoglucosamine mutase GlmM of S. aureus (LAC* genomic DNA); C-terminal 6-His tag removed at the thrombin site; In the tag-less DacACD/GlmM complex (SASBDB SASDE78) this chain stands with m1; also called tag-less GlmM; source: E. coli BL21 (DE3), purified (Ni-NTA, thrombin cleavage of the His-tag, size exclusion chromatography); not shown: His6, C-terminal, cleaved
As to B1, in data set [10], the “stoichiometry N” value stood at 2.
